In patent US20240034813A1 (Janssen / Centocor, published 2024):

Tests used:
[1] = target: T1, recombinant cMet/HGFR with c-terminal His-tag, Cy5-labeled (UniProt P08581 25-932, limits assumed, Cy5 label (reacted with Cy5 Mono NHS Ester; sites not stated)); experiment: competitive TR-FRET (Eu-amivantamab/Cy5-c-MET), EC50 ratio vs Reference Material; Ex. 12 drug product with rHuPH20, 3 months at 40 C
T1 construct: Commercial protein; also called Cy5-c-MET; Cy5-labeled c-MET antigen; not shown: C-terminal His-tag
Source text: (§1) In this procedure, varying concentrations of unlabeled bispecific EGFR-cMet antibody sample compete with donor fluorophore (Europium (Eu) chelate) labeled bispecific EGFR-cMet antibody for binding to an acceptor fluorophore (Cy5)-labeled c-MET antigen. Excitation of the donor fluorophore results in a transfer of energy to the bound acceptor fluorophore (FRET process). The resultant FRET is detected by emission of light at 665 nm using a microplate reader capable of measuring time-resolved fluorescence. Sample dose response curves are compared to the Reference Material (RM).
(§2) c-MET Binding Materials and Methods. Certified commercial cMet, a recombinant cMet/HGFR with c-terminal His-tag is reacted with certified commercial Cy5 Mono NHS Ester to produce Cy5-labeled c-MET. Validated bispecific EGFR-cMet antibody is reacted with certified commercial Europium (Eu) chelate to produce Eu labeled bispecific EGFR-cMet antibody. […] Fluorescence is then measured by spectrophotometry at 665 nm, plotted against antibody concentration and analyzed by a four-parameter logistic model. The antibody concentration required to obtain half of the maximum fluorescence response (EC50) is determined for RM, assay control and samples. The potencies of assay control and samples are calculated based on the ratio of the sample (or control) and RM EC50 values and reported as a percentage activity relative to the RM.

[2] = target: T1, recombinant cMet/HGFR with c-terminal …; experiment: competitive TR-FRET (Eu-amivantamab/Cy5-c-MET), EC50 ratio vs Reference Material; Ex. 12 drug product with rHuPH20, 0 months, 5 C table
Source text: as §1, §2

[3] = target: T2, recombinant human EGFR/ErbB1/HER1 with C-terminal His tag, Cy5-labeled (human, UniProt P00533 25-645, Cy5 label (reacted with Cy5 Mono NHS Ester; sites not stated)); experiment: competitive TR-FRET (Eu-amivantamab/Cy5-EGFR), EC50 ratio vs Reference Material; Ex. 11 drug product, 6 months at 25 C
T2 construct: Commercial protein; also called Cy5-EGFR; Cy5-labeled EGFR antigen; not shown: C-terminal His tag
Source text: (§3) In this procedure, varying concentrations of unlabeled bispecific EGFR-cMet antibody sample compete with donor fluorophore (Europium (Eu) chelate) labeled bispecific EGFR-cMet antibody for binding to an acceptor fluorophore (Cy5)-labeled EGFR antigen. Excitation of the donor fluorophore results in a transfer of energy to the bound acceptor fluorophore (FRET process). The resultant FRET is detected by emission of light at 665 nm using a microplate reader capable of measuring time-resolved fluorescence. Sample dose response curves are compared to the RM.
as §2, with “EGFR” for “c-MET”, “EGFR,” for “cMet,”, “human EGFR/ErbB1/HER1” for “cMet/HGFR”, “C-terminal His tag” for “c-terminal His-tag”, “EGFR.” for “c-MET.”, “Eu-labeled” for “Eu labeled”

[4] = target: T1, recombinant cMet/HGFR with c-terminal …; experiment: competitive TR-FRET (Eu-amivantamab/Cy5-c-MET), EC50 ratio vs Reference Material; Ex. 2 Formulation 3 (acetate), 3 months at 5 C
Source text: as §1, §2

[5] = target: T2, recombinant human EGFR/ErbB1/HER1 with …; experiment: competitive TR-FRET (Eu-amivantamab/Cy5-EGFR), EC50 ratio vs Reference Material; Ex. 12 drug product with rHuPH20, 12 months at 5 C
Source text: as §3
as §2, with “EGFR” for “c-MET”, “EGFR,” for “cMet,”, “human EGFR/ErbB1/HER1” for “cMet/HGFR”, “C-terminal His tag” for “c-terminal His-tag”, “EGFR.” for “c-MET.”, “Eu-labeled” for “Eu labeled”

[6] = target: T1, recombinant cMet/HGFR with c-terminal …; experiment: competitive TR-FRET (Eu-amivantamab/Cy5-c-MET), EC50 ratio vs Reference Material; Ex. 2 Formulation 2 (50 mM histidine), 3 months at 25 C
Source text: as §1, §2

[7] = target: T2, recombinant human EGFR/ErbB1/HER1 with …; experiment: competitive TR-FRET (Eu-amivantamab/Cy5-EGFR), EC50 ratio vs Reference Material; Ex. 2 Formulation 2 (50 mM histidine), T0, 40 C table
Source text: as §3
as §2, with “EGFR” for “c-MET”, “EGFR,” for “cMet,”, “human EGFR/ErbB1/HER1” for “cMet/HGFR”, “C-terminal His tag” for “c-terminal His-tag”, “EGFR.” for “c-MET.”, “Eu-labeled” for “Eu labeled”

[8] = target: T2, recombinant human EGFR/ErbB1/HER1 with …; experiment: competitive TR-FRET (Eu-amivantamab/Cy5-EGFR), EC50 ratio vs Reference Material; Ex. 11 drug product, 9 months at 5 C
Source text: as §3
as §2, with “EGFR” for “c-MET”, “EGFR,” for “cMet,”, “human EGFR/ErbB1/HER1” for “cMet/HGFR”, “C-terminal His tag” for “c-terminal His-tag”, “EGFR.” for “c-MET.”, “Eu-labeled” for “Eu labeled”

B1: amivantamab (bispecific antibody, human IgG1, kappa)
heavy 1: not shown
light 1: not shown
heavy 2: not shown
light 2: DIQMTQSPSSVSASVGDRVTITCRASQGISNWLAWFQHKPGKAPKLLIYAASSLLSGVPSRFSGSGSGTDFTLTISSLQPEDFATYYCQQANSFPITFGQGTRLEIKRTVAAPSVFIFPPSDEQLKSGTASVVCLLNNFYPREAKVQWKVDNALQSGNSQESVTEQDSKDSTYSLSSTLTLSKADYEKHKVYACEVTHQGLSSPVTKSFNRGEC
notes: The samples tested were high concentration (160 mg/mL) formulations, fresh or stored or stressed; also called JNJ-61186372; bispecific EGFR-cMet antibody
[1]
  cMET Binding activity relative to Reference Material (%): 68%
[2]
  cMET Binding activity relative to Reference Material (%): 91%
[3]
  EGFR Binding activity relative to Reference Material (%): 57%
[4]
  cMET Binding % activity relative to RM: 109%
[5]
  EGFR Binding activity relative to Reference Material (%): 94%
[6]
  cMET Binding % activity relative to RM: 89%
[7]
  EGFR Binding % activity relative to RM: 103%
[8]
  EGFR Binding activity relative to Reference Material (%): 90%
